Biological target: human CCR2b with the FLAG epitope at the extreme amino-terminus, stably expressed on HEK-293 cells (Example 10B) (human), P41597
Assay: cell-based or functional assay

human CCR2b with the FLAG epitope at the extreme amino-terminus, stably expressed on HEK-293 cells (Example 10B) (human), P41597, sequence (P41597 whole entry): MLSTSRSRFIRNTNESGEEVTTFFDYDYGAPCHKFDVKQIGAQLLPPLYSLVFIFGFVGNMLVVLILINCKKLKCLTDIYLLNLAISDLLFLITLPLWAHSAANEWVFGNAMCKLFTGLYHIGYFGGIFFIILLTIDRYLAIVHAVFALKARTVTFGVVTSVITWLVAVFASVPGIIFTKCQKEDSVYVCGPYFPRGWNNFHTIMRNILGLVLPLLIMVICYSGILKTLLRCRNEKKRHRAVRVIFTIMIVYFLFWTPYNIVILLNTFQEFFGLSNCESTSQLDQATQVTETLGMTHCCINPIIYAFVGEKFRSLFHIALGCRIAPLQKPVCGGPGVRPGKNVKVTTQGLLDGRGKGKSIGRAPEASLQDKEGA

B1: murine MCP-5, predicted mature 82 amino acid protein beginning with the N-terminal glycine (E. coli, PeproTech), Q62401 23-104 (ligand)
chain: GPDAVSTPVTCCYNVVKQKIHVRKLKSYRRITSSQCPREAVIFRTILDKEICADPKEKWVKNSINHLDKTSQTFILEPSCLG
- EC50 of intracellular calcium flux: 5 nM

From patent US6673915
